This is an account of results in patent publication EP4814009A1 (Medpacto Inc., dated 2026).

The experiment concerns the target T1, biotinylated TGF-β1 (R&D Systems, Catalog #NFTG0) (UniProt P01137 279-390, biotinylated (sites not given)).
T1 construct: Detection reagent of the sandwich ELISA, 1:50 diluted in PBS
Put plainly: sandwich ELISA, simultaneous binding of EDB-FN-6x His (coated) and biotinylated TGF-β1.

T1 sequence (P01137 279-390 limits assumed): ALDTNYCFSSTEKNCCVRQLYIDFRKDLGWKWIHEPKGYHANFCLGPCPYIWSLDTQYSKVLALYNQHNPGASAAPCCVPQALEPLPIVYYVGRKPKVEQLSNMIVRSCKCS

B1: Anti-EDB-FN scFv-TGFβ Trap (other)
chain: EVQLLESGGGLVQPGGSLRLSCAASGFTFSSFSMSWVRQAPGKGLEWVSSISGSSGTTYYADSVKGRFTISRDNSKNTLYLQMNSLRAEDTAVYYCAKPFPYFDYWGQGTLVTVSSGGGGSGGGGSGGGGSEIVLTQSPGTLSLSPGERATLSCRASQSVSSSFLAWYQQKPGQAPRLLIYYASSRATGIPDRFSGSGSGTDFTLTISRLEPEDFAVYYCQQTGRIPPTFGQGTKVEIKSSSSGSSSSGSSSSGIPPHVQKSVNNDMIVTDNNGAVKFPQLCKFCDVRFSTCDNQKSCMSNCSITSICEKPQEVCVAVWRKNDENITLETVCHDPKLPYHDFILEDAASPKCIMKEKKKPGETFFMCSCSSDECNDNIIFSEEYNTSNPD
notes: L19 scFv fused onto the TGFβ Trap without Fc; also called Anti-EDB-FN scFv-TGFβ Trap without Fc fusion
Regarding B1, the binding result is “binds”.
